Source: publication PMC9610346

Key:
[1] = molecular target: gp145 SOSIP construct of the Env spike protein from the HIV-1 BG505 clade A strain, nanodisc-embedded trimer (HIV-1 strain BG505 (clade A)); assay: cryo-EM structure
[2] = molecular target: gp145 SOSIP construct of the Env spike protein from the HIV-1 BG505 clade A strain, nanodisc-embedded trimer (HIV-1 strain BG505 (clade A)); assay: negative-stain EM

Substance: gp145 SOSIP construct of the Env spike protein from the HIV-1 BG505 clade A strain, nanodisc-embedded trimer (complex)
- stoichiometry N [1]: 3
- stoichiometry N [2]: 3
